Source: patent US20130345145A1, “ATIP3 AND BIOLOGICALLY ACTIVE FRAGMENTS THEREOF FOR USE IN THE TREATMENT OF CANCER” (INSTITUT NATIONAL DE LA SANTE ET DE LA RECHERCHE MEDICALE …, priority 2011, published 2013)
Where no end group is shown, it is not given here.

B1: ATIP3BD: basic central domain of ATIP3, residues 410-874 of SEQ ID NO: 1, expressed as GFP fusion (protein, listed as Homo sapiens)
chain: GLTWDANDMVISTDKTMCMSTPVLEPTKVTFSVSPIEATEKCKKVEKGNRGLKNIPDSKEAPVNLCKPSLGKSTIKTNTPIGCKVRKTEIISYPRPNFKNVKAKVMSRAVLQPKDAALSKVTPRPQQTSASSPSSVNSRQQTVLSRTPRSDLNADKKAEILINKTHKQQFNKLITSQAVHVTTHSKNASHRVPRTTSAVKSNQEDVDKASSSNSACETGSVSALFQKIKGILPVKMESAECLEMTYVPNIDRISPEKKGEKENGTSMEKQELKQEIMNETFEYGSLFLGSASKTTTTSGRNISKPDSCGLRQIAAPKAKVGPPVSCLRRNSDNRNPSADRAVSPQRIRRVSSSGKPTSLKTAQSSWVNLPRPLPKSKASLKSPALRRTGSTPSIASTHSELSTYSNNSGNAAVIKYEEKPPKPAFQNGSSGSFYLKPLVSRAHVHLMKTPPKGPSRKNLFTALNA
modifications: GFP fusion; (1)..(409) acidic N-terminal region

Key:
microtubule cytoskeleton [1] = experiment: Immunofluorescence intracellular localization in RPE1 cells; format: cell-based, Human; conditions: RPE1 cells transfected 24 hrs, data not shown
Description: Immunofluorescence study was performed as example 2. Briefly, Human retinal pigment epithelial (RPE1) cells were transfected for 24 hrs with GFP-D2N, GFP-D2C or GFP-D2CC constructs prior to fixation in ice-cold methanol and incubation with anti-GFP antibodies as described (page 21, lines 1-9).

MCF7 breast cancer cells = experiment: Xcelligence cell proliferation of stable MCF7 clones; format: cell-based; conditions: clone D2CC3, MCF7, FIG. 13
Description: Stable clones of MCF7 breast cancer cells expressing moderate levels of GFP-D2N (clones D2N6 and D2N8), GFP-D2C (clone D2C6 and a pool of positive cells) and GFP-D2CC (clone Cl3) have been selected in G418 (1 mg/ml)-containing medium for 4 weeks. Detectable expression of a single polypeptide of expected molecular weight in each case was confirmed by western blotting using anti-GFP antibodies.
Cell proliferation was measured using the Xcelligence technology (Roche). Briefly, cell clones were seeded at 15000 cells/well on 96 wells containing gold electrodes and cellular impedance was monitored in real-time for 40 hours.

microtubule cytoskeleton [2] = experiment: Immunofluorescence localization in transfected MCF-7 cells; format: cell-based, human; conditions: MCF-7 cells transiently transfected 24 h, data not shown
Description: (§1) The pEGFP-ATIP3BD plasmid was transiently transfected into human breast cancer MCF-7 cells. Localization of GFP-ATIP3BD fusion protein at the microtubule cytoskeleton was examined by immunofluorescence, and its ability to interact with stabilized microtubules was determined by co-sedimentation assay.
Exponentially growing human breast cancer MCF-7 cells plated on coverslips were transiently transfected (24 h) with pEGFP-ATIP3BD plasmid, and fixed in ice-cold methanol for 5 min prior to incubation for 1 h at room temperature with primary antibodies: anti-GFP monoclonal antibodies (Roche, diluted 1:200) and human anti-alpha-tubulin antibodies clone F2C (diluted 1:10), as described in Rodrigues-Ferreira et al. (PLoS One. 2009; 4(10):e7239 2009). After extensive washing, cells were incubated for 30 min at room temperature with appropriate secondary Cy-2-conjugated anti-human and/or Cy-3-conjugated anti-mouse antibodies (Jackson Laboratories, Interchim, France) diluted 1:500. Coverslips were mounted on glass slides using Glycergel Mounting Medium (DakoCytomation) and examined with a Leica TCS SP2 AOBS confocal microscope using appropriate filters. Image analysis was performed with NIH ImageJ software.

stabilized microtubules = experiment: Microtubule co-sedimentation assay; format: binding, human; conditions: MCF-7 lysate, taxol 20 μM, data not shown
Description: as §1
For microtubule cosedimentation assay, human breast cancer MCF-7 cells were transiently transfected (24 h) with pEGFP-ATIP3BD plasmid and incubated for 20 min at 4° C. in PEM buffer (100 mM PIPES, pH 6.9, 1 mM MgSO4, 1 mM EGTA), scraped and sonicated prior to centrifugation at 15000 rpm for 10 min, 4° C. Clarified samples were incubated with taxol (20 μM) in the presence of GTP (1 mM) and DTT (1 mM) for 45 min at 37° C. and were spun at 70 000 g for 30 min at 30° C. through a cushion buffer containing 40% glycerol, 20 μM taxol and 1 mM GTP. The supernatant (S) and pellet (P) fractions were collected separately and subsequently immunoblotted with anti-GFP (Roche) and anti-alpha-tubulin (Sigma) antibodies.

[3] = tested on: human breast cancer MCF-7 cells; experiment: Clonogenicity experiments; format: cell-based; conditions: MCF-7 transfected with GFP fusion, G418 selection 3 weeks, compared to GFP
Description: For clonogenicity experiments, human breast cancer MCF-7 cells were transfected for 24 h with […] pEGFP-C1 vector or 2 μg of pEGFP-ATIP3BD cDNA. Similar transfection efficiency (50%) was assessed by FACS analysis and cell viability was verified using trypan blue. Cells were then plated at various dilutions in 12 well plates and transfectants were selected by adding geneticin (G418, 1 mg/ml, Gibco) in fresh medium twice a week for 3 weeks. Resistant colonies were stained with 0.5% crystal violet (Sigma) and counted.
The ability of human MCF7 breast cancer cells to form colonies following expression of minimal domains D2N and D2C was analyzed by clonogenicity experiments as described before (see example 2).

| Molecule | intracellular localization (microtubule cytoskeleton [1]) | factor of reduction of proliferation as compared to clone expressing GFP-ATIP3 (MCF7 breast cancer cells) | localization of GFP fusion protein at the microtubule cytoskeleton (microtubule cytoskeleton [2]) | co-sedimentation with stabilized microtubules (stabilized microtubules) | cell proliferation / number of G418-resistant colonies [3] |
| --- | --- | --- | --- | --- | --- |
| D2CC: domain of ATIP3BD, amino-acid positions 817-874 of SEQ ID NO: 1, 58 amino-acids polypeptide, expressed as GFP fusion (SGNAAVIKYEEKPPKPAFQNGSSGSFYLKPLVSRAHVHLMKTPPKGPSRKNLFTALNA; also: expressed as GFP fusion; listed as Homo sapiens) | remains diffuse in the cytosol | 2 |  |  |  |
| B1 |  |  | localizes at the microtubule cytoskeleton | co-sediments with stabilized microtubules | mimic the inhibitory effects of the entire ATIP3a and ATIP3b proteins |
